The supplement of paper PMC12042874
± gives the uncertainty stated by the source.

Test: amyloid nucleation score (Sup35N fusion, yeast selection) (log enrichment); library NNK1; higher = more nucleation; inactive = no reads after selection
Procedure, shortened: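 The nucleation score is a DiMSum log enrichment of output over input reads, centred on the mode score of non-aggregating sequences. Sequences under 100 input reads were excluded, and reads came from Illumina sequencing of plasmid inserts. Psi-negative yeast expressing Sup35N fused to peptides of 20 random codons were induced with 100 μM copper sulfate for 24 hours and grown 7 days at 30°C on medium lacking adenine and uracil. Random libraries had three technical output replicates.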

Substance | amyloid nucleation score
MFSVFNRKRN | -0.354 ± 0.26
MFTYDGRVEWVLA | -0.133 ± 0.45
MGILW | -0.328 ± 0.66
MGLSNSDADGRTLRNEHVKS | -1.35 ± 2.1
MGNIVTLHFSHVGHRYSKWV | inactive
MGRQEASMKRCTSGDVGGWL | 0.523 ± 0.78
MHHCSFSSLDFTVHK | -1.02 ± 2.4
MHMGFAWMSLIM | inactive
MHRSFFHVM | 2.33 ± 0.52
MIFPDQYYYSISPW | -0.115 ± 0.28
MIGNRY | 0.091 ± 0.26
MIIRLVLVGSSYKNVPSAEG | 0.137 ± 0.49
MILLKCIYY | 0.179 ± 0.39
MIMKYLSDVLTRIGHDIFFA | -0.872 ± 1.4
MINVYK | 4.33 ± 0.073
MISLHVL | -0.109 ± 1.3
MKDSGCPSGNNTALEGASLI | 0.269 ± 0.49
MKFRINVDLLLNLDNPGIKL | 0.165 ± 0.45
MKMRFVVSLMNSERSSGRNE | 0.9 ± 0.5
MKQALMGVVMIHWGGRSRV | 0.687 ± 0.54
MKQFIKNLNISLPPARTQLT | inactive
MLEESVLHSLLICGANSVFK | 0.195 ± 1.1
MLFPSVSKRLNVSALNCKNP | -0.083 ± 1.4

Substance | amyloid nucleation score
MLHYSARGFRRHK | 0.326 ± 1.2
MLKMTVYFHIMID | -0.065 ± 1.1
MLLLSVSLSLKID | 4.35 ± 0.095
MLLPSYVEF | 1.46 ± 0.34
MLNVEGNTLKSWIYGRHLVP | 0.097 ± 0.69
MLRMLAVQCFSSCIARLD | 2.05 ± 0.3
MLRTMG | 0.746 ± 0.5
MLSMFGWISSIFVYYYLNKR | 0.571 ± 0.17
MLSNGGLHVRSK | 1.31 ± 0.93
MLSVSWFAVAMVYMGMNNTC | 2.04 ± 0.48
MLWSKKGTGNYRYCRTGYTG | 0.322 ± 0.49
MLWTCKDNLCKDMTHVWSIY | inactive
MMGGKDCQFYCSIPLFRVMM | 2.2 ± 0.16
MMPFYHSNSR | -1.38 ± 1.1
MMSSEVLPINSCIRSWANAL | -0.431 ± 0.29
MNLYNRNYLYCIYRKETTTT | -0.957 ± 1.4
MNVGCSVVWIKCLNACTSKQ | 6.168 ± 0.06
MPCHAFAKMFVQSEFSGSVC | 0.498 ± 0.97
MPCNVGMGWCRVVNWWGLYG | 0.604 ± 0.44
MPKAQDALTLKNGELKRLSG | 0.295 ± 0.4
MPLAKSPLTLG | 4.39 ± 0.062
MQFCVEYTRPVRYQLWGSLM | 0.327 ± 0.83
MQNCISLL | -0.483 ± 0.4

Substance | amyloid nucleation score
MQSMQL | inactive
MQVNIVGVSILVAWPR | 6.48 ± 0.071
MQWSYV | 0.32 ± 0.37
MRASTFNYSYELKINVVCYT | -0.918 ± 0.53
MRCISYIYEHAL | 0.567 ± 0.66
MRDLK | -0.405 ± 0.53
MRHGSKAWQLYRLFKYDFFW | 0.534 ± 0.9
MRPVGTRFSSIP | -0.201 ± 0.55
MRRCTGMLCYTIS | 0.97 ± 0.53
MRTDFERHIVSYVSELCKLP | -0.162 ± 0.73
MRVGIWDKMRSLRCDISAC | 0.293 ± 0.66
MSDRKCKKDSRYLWRDLLPE | 0.264 ± 0.46
MSFQY | -2.11 ± 1.9
MSGVRYLCCL | 0.087 ± 0.58
MSIAMDGYFYPSSAAPFFIT | -0.156 ± 0.42
MSIVCFCW | 8.155 ± 0.047
MSVEIVTIGGGF | -0.481 ± 1.4
MSVVWSWMYFIKLDTFA | -0.348 ± 0.23
MTAGLHQ | 3.47 ± 0.082
MTEQVAANAEDWSVVGNWLV | 0.43 ± 0.5
MTLRLS | 0.375 ± 0.41
MTPKLVQSRT | 0.106 ± 0.91
MTPTTWLYPVILTSSLS | 0.44 ± 0.84

Substance | amyloid nucleation score
MTSAGSAWVYSYFYLGLIRK | -0.143 ± 0.53
MTSCMRWAVNRYSFLLWKAN | -0.416 ± 0.29
MTTHVRWFNGLMSP | inactive
MTYTSWMMNRFNITNSYNLV | 0.755 ± 0.97
MVDMILLGRNFINKRMLCLG | 0.019 ± 0.64
MVGSAVVFVLENLGVTGSWG | 0.072 ± 0.84
MVIYR | -0.517 ± 0.75
MVLWW | -0.231 ± 0.58
MVWPFKRRRWHYGILALLDR | -1.22 ± 0.75
MWAAGDNHYSNKVLSLAMVV | 0.501 ± 1
MWWAHDGFRSCLRHISHADG | 0.349 ± 0.91
MWYNCFMTNPGFQLSPMGSI | 0.851 ± 0.55
MYFSIRDCCSYAFNSFDIYG | 5.508 ± 0.047
MYGNES | -0.02 ± 0.4
MYHLSGVSYMFSLCSDCRRL | 8.122 ± 0.066
MYKAEICLMSLENRPLMLPF | 0.203 ± 0.44
MYLVDASMSKPLIVLKSCN | 0.686 ± 1.1
MYMGAPSIVVIVMLQNMKFV | 2.34 ± 0.32
MYNNTALRRSEYADCH | 0.872 ± 0.8
MYSKIYIFNLEFLMTYWNAL | 1.92 ± 0.3
